# According to the supplement of paper PMC12764529:
# ± gives the half width of the 95% confidence interval.
# Key:
# [1] = folding stability dG unfold (combined trypsin and chymotrypsin); higher = more stable
# Procedure, shortened: (§1)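 K50 was inferred by Bayesian fitting of sequencing counts obtained after protease digestion of designed mini-proteins. Unfolding free energy was derived by comparison with a sequence-predicted unfolded-state K50 and a shared folded-state K50, for each protease or both combined. The mini-proteins were under 80 residues, had no cysteine, were carried in a PA-tagged cDNA display construct, and were kept only if AlphaFold2 dimer inter-PAE exceeded 15.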
# [2] = folding stability dG unfold from trypsin proteolysis; higher = more stable
# Procedure, shortened: as §1
# [3] = folding stability dG unfold from chymotrypsin proteolysis; higher = more stable
# Procedure, shortened: as §1
Sequence,folding stability dG unfold [1] [kcal/mol],folding stability dG unfold [2] [kcal/mol],folding stability dG unfold [3] [kcal/mol]
SAGGSAGGSAKAVIFFEGASIEDVVEAVKARPEEEVLVVFPDGRVLLLTKDDVVVVVPAPFSAGGSAGGSAG [r3_269_TrMRF],1.23 ± 0.093,1.19 ± 0.052,1.22 ± 0.11
SAGGSAKKTIKITIEVDGKTIEITKITVNENGEVTIEVKITNKNGKETKTIKITMTVEELKALLKSSAGGSA [r15_56_TrROS_Hall],2.18 ± 0.095,1.63 ± 0.042,2.55 ± 0.081
SAGGSAGGSAGPIVLIKIKNKNGKEIEIEMSLEELKKKLPKELKNMKVEIVEVKEVKVEKSAGGSAGGSAGG [r11_353_TrROS_Hall],0.56 ± 0.27,0.351 ± 0.088,0.315 ± 0.14
SAGGSIWIPIDSPEDVEEAIDFIQDFLAERGMPPGHDIKKIKVERMENGHYWVEIEFPGRKIYIWVSAGGSA [r2_120_TrROS],3.65 ± 0.084,2.62 ± 0.049,4.02 ± 0.054
SAGGSAGGSGMAVSVSVTPVRLPDGSVRLVISFSSGSTVVLDLPESEWTPEQVEALVAELVSASAGGSAGGS [r12_218_JUSTAS],3.89 ± 0.058,3.82 ± 0.077,3.9 ± 0.048
GEERTFSLWVKTKSPQEARQLQEKIKDILRGPGYEVKIDDVEVSPNGWMKVNITMRPGMPQDRLRDALRKIS [r1_485_TrROS],4.99 ± 0.07,3.93 ± 0.082,5.24 ± 0.06
SENKPVTVLVNVTKNEDGTYTARVFVFDENGKLLAEEEVEAPLEKAVELVEALKKAYPNAKVVAVFTEGLSA [r9_374_TrMRF],4.67 ± 0.2,3.63 ± 0.23,4.81 ± 0.21
SAGKTIVIKAKTAEEAINALLKELKKKGEKVKITVTVYDKNGKEVYRVTIEIDPKEKGKIKIKVEKVPSAGG [r19_85_TrROS_Hall],3.33 ± 0.44,2.19 ± 0.22,3.65 ± 0.2
SAGGSKVRIEVEELPDGTVKVTAEVEVDGVLYKIEAEFRINEDGEIVEMKVKIEARPLPPPPPPEESAGGSA [r2_474_TrROS_Hall],3.92 ± 0.21,3.5 ± 0.27,4.17 ± 0.17
SAGGSAGPLPNEKVEVTLTIPLNVLVLDEDGEPLTPEEIARRVRELFSDVSVTLEPGDRLVITLTESAGGSA [r15_645_TrMRF],1.85 ± 0.049,2.006 ± 0.015,1.7 ± 0.022
SAGGKPLLIKVKVRLKNGKELTITVREGESLEEILARARELLGKPIEVEKIEVIPLPPKKEVKKKEKSAGGS [r8_285_TrROS_Hall],2.46 ± 0.093,1.48 ± 0.019,2.86 ± 0.072
SAGGSAGGSDNVKIEWEYNPENGVYTHEVYYDDGRPVTIIINPAEGPIWVFDPPDGKPIAPIPSAGGSAGGS [r12_657_TrROS],1.07 ± 0.073,1.36 ± 0.05,0.833 ± 0.023
SAGKKQEVTIMIPIRGPAQAREQVEEFANDFPIKPTRVHPNPNKNHYWVMVTMKVPGAKIKIMIWIPPSAGG [r19_262_TrROS],3.67 ± 0.13,2.94 ± 0.11,4.19 ± 0.057
SAGMKYTAEVKVKEKDKEIDVTVSDDATFTDPEGKETTFKIGSEEELKKALEEIFPEKYPYEILSVKVLSAG [r14_41_JUSTAS],-0.0975 ± 0.2,-0.65 ± 0.47,0.156 ± 0.18
SAGGMVEVKPFEIKPPGSSITVTLTDPQGNVIGSTTVSVPTGRLELTITVEPDKTVKVTLTELPPSEVSAGG [r13_935_JUSTAS],1.01 ± 0.13,1.42 ± 0.086,-0.262 ± 0.34
SAGMVVIEVKKDEVPVDPEKALVFEFGDKRYILVDGEKAEEIKDAFPNLDIKIKPVSPEELEKLLKAHSAGG [r19_271_TrMRF],1.27 ± 0.14,1.18 ± 0.051,1.34 ± 0.1
SAGGLIEAIKEAIDQAPPGDEEVTIPIRFPNGTFVIEIRREKDKYKIEIEMQNPNGQKQEITITIEVSAGGS [r16_642_TrROS],1.65 ± 0.12,1.43 ± 0.091,1.69 ± 0.089
SAGGMEIKEVKYDPEEGYLYIVVAAPPSVSPSEVVPAVVRAARELTGAEVEVEVDPETGYVVAKVPVSAGGS [r8_314_TrMRF],1.77 ± 0.089,1.43 ± 0.026,1.92 ± 0.043
SAGEATVEKLEDGYVVVFKDGSVAFLPAVPPAVPVVEIPFKDPEEGRRAVEELGADVLDIGDDSIVVAGSAG [r5_328_TrMRF],-0.01 ± 0.1,-1.19 ± 0.16,0.346 ± 0.033
SAGGSAGGSAGDKNGKPPPKIEIVPIRMSFRFPELGWWIEIDIYVIKDPAIMISISLYPYSAGGSAGGSAGG [r11_883_TrROS],4.91 ± 0.35,3.61 ± 0.22,5.25 ± 0.17
FRFTIPLPDGKKIIIDYRPMPDGNYMFDVKLQLPNGKERTIPIMVPREEFPGMPMEEMAETMVKEALKKLKS [r1_92_TrROS],3.3 ± 0.26,2.63 ± 0.15,3.4 ± 0.13
